From PMC6477676, “Staufen2-mediated RNA recognition and localization requires combinatorial action of multiple domains”
Where a chain is given by its changes, count along the chain named.

T1: mStau2 dsRBD1-2 E99A (Mus musculus, UniProt Q8CJ67 8-181, E99A)
T1 sequence: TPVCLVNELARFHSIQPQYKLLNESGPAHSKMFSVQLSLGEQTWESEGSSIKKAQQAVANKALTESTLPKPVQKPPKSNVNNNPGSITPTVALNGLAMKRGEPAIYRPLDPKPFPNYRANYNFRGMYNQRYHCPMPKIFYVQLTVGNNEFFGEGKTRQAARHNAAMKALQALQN

T2: mStau2 dsRBD1-2 K59A (Mus musculus, UniProt Q8CJ67 8-181, K59A)
T2 sequence: T1 sequence with K52A, A92E

T3: mStau2 dsRBD1-4 (Mus musculus, UniProt Q8CJ67 8-375)
T3 sequence: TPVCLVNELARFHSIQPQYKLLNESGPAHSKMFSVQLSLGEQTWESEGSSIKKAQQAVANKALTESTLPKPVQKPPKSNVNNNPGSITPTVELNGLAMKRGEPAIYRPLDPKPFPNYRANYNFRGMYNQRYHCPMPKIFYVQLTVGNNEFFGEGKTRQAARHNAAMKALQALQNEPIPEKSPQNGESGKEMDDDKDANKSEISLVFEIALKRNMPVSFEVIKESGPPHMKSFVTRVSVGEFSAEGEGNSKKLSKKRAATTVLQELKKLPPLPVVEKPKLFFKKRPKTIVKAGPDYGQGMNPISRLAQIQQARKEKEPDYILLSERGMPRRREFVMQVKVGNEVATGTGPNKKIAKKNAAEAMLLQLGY

T4: mStau2 dsRBD2 (Mus musculus, UniProt Q8CJ67 95-181)
T4 sequence: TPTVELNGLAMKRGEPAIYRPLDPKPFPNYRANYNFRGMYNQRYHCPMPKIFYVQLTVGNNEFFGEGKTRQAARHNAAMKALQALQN

T5: mStau2 dsRBD1-2 H36A (Mus musculus, UniProt Q8CJ67 8-181, H36A)
T5 sequence: T1 sequence with H29A, A92E

B1: SRS2+5 (structured_RNA)
RNA: GGUAUAUACAUGCACAUGCAAUUUGUGUAUGUGUAUGUAUAUA
B2: SRS* (SRS3) (structured_RNA)
RNA: GGUAUGUGUGAAUGUGCAUGAAUAUAUAUAUAUAUGCAUAUAUAUAUUUGUAUAUGUUCACACAUG

What was measured:
[1] = target: T1, mStau2 dsRBD1-2 E99A; test: SPR; Hill n 1.5; SPR: HBS-EP (10 mM HEPES pH 7.4, 150 mM NaCl, 3 mM EDTA, 0.005% P20); EMSA: 5 nM RNA, protein buffer (40 mM Bis-Tris pH 7, 150 mM NaCl, 2 mM DTT presumed), 4% glycerol, 30 ug/mL yeast tRNA, RT; NMR: 150 mM NaCl, 20 mM Na phosphate pH 7.0, 5 mM DTT, 298 K; details: protein: recombinant; label: 5' 32P (EMSA); biotin (SPR); hairpin, 18 bp stem
[2] = target: T2, mStau2 dsRBD1-2 K59A; test: SPR; Hill n 1.2; SPR: HBS-EP (10 mM HEPES pH 7.4, 150 mM NaCl, 3 mM EDTA, 0.005% P20); EMSA: 5 nM RNA, protein buffer (40 mM Bis-Tris pH 7, 150 mM NaCl, 2 mM DTT presumed), 4% glycerol, 30 ug/mL yeast tRNA, RT; NMR: 150 mM NaCl, 20 mM Na phosphate pH 7.0, 5 mM DTT, 298 K; details: protein: recombinant; label: 5' 32P (EMSA); biotin (SPR); hairpin, 18 bp stem
[3] = target: T3, mStau2 dsRBD1-4; test: SPR; Hill n 1.6; text says 357 nM; SPR: HBS-EP (10 mM HEPES pH 7.4, 150 mM NaCl, 3 mM EDTA, 0.005% P20); EMSA: 5 nM RNA, protein buffer (40 mM Bis-Tris pH 7, 150 mM NaCl, 2 mM DTT presumed), 4% glycerol, 30 ug/mL yeast tRNA, RT; NMR: 150 mM NaCl, 20 mM Na phosphate pH 7.0, 5 mM DTT, 298 K; details: protein: recombinant; tags: HisSUMO removed; label: 5' 32P (EMSA); biotin (SPR); hairpin, 18 bp stem
[4] = target: T4, mStau2 dsRBD2; test: SPR; Hill n 1.3; SPR: HBS-EP (10 mM HEPES pH 7.4, 150 mM NaCl, 3 mM EDTA, 0.005% P20); EMSA: 5 nM RNA, protein buffer (40 mM Bis-Tris pH 7, 150 mM NaCl, 2 mM DTT presumed), 4% glycerol, 30 ug/mL yeast tRNA, RT; NMR: 150 mM NaCl, 20 mM Na phosphate pH 7.0, 5 mM DTT, 298 K; details: protein: recombinant; label: 5' 32P (EMSA); biotin (SPR); hairpin, 18 bp stem
[5] = target: T5, mStau2 dsRBD1-2 H36A; test: SPR; Hill n 0.9; SPR: HBS-EP (10 mM HEPES pH 7.4, 150 mM NaCl, 3 mM EDTA, 0.005% P20); EMSA: 5 nM RNA, protein buffer (40 mM Bis-Tris pH 7, 150 mM NaCl, 2 mM DTT presumed), 4% glycerol, 30 ug/mL yeast tRNA, RT; NMR: 150 mM NaCl, 20 mM Na phosphate pH 7.0, 5 mM DTT, 298 K; details: protein: recombinant; label: 5' 32P (EMSA); biotin (SPR); imperfect hairpin, 26 bp with two bulges
[6] = target: T2, mStau2 dsRBD1-2 K59A; test: as above; details: protein: recombinant; label: 5' 32P (EMSA); biotin (SPR); imperfect hairpin, 26 bp with two bulges
[7] = target: T3, mStau2 dsRBD1-4; test: SPR; Hill n 1.7; text says 330 nM; SPR: HBS-EP (10 mM HEPES pH 7.4, 150 mM NaCl, 3 mM EDTA, 0.005% P20); EMSA: 5 nM RNA, protein buffer (40 mM Bis-Tris pH 7, 150 mM NaCl, 2 mM DTT presumed), 4% glycerol, 30 ug/mL yeast tRNA, RT; NMR: 150 mM NaCl, 20 mM Na phosphate pH 7.0, 5 mM DTT, 298 K; details: protein: recombinant; tags: HisSUMO removed; label: 5' 32P (EMSA); biotin (SPR); imperfect hairpin, 26 bp with two bulges

Binder	Kd [1] [nM]	Kd [2] [nM]	Kd [3] [nM]	Kd [4] [nM]	Kd [5] [nM]	Kd [6] [nM]	Kd [7] [nM]
B1	635 ± 308	509 ± 136	330 ± 148	650 ± 247	–	–	–
B2	–	–	–	–	499 ± 149	624 ± 142	287 ± 127
